We go through four molecules from publication PMC9008036, “Structural and molecular determinants for the interaction of ExbB from Serratia marcescens and HasB, a TonB paralog” (Communications Biology, 2022).

Broadly, the stoichiometry N is the number of molecules, sites or subunits per partner or assembly.

For test [1], the target named is ExbBSm, C-terminally His6-tagged (from pBADExbBSmHis6), purified alone (Serratia marcescens). Kind of test: cryo-EM structure; purified ExbBSm-His6 alone in LMNG micelles, ca. 1 mg/mL, 20 mM Tris pH 8.0, 100 mM NaCl, 0.0015% LMNG; single-particle, C5 symmetry, 3.1 Å.
The target of test [2] is ExbBSm, untagged, co-expressed and co-purified with ExbDSm-His6 (from pBADExbBDSmHis6) (Serratia marcescens). Kind of test: cryo-EM structure; purified ExbBDSm complex (His6 on ExbD) in LMNG micelles, ca. 1 mg/mL, 20 mM Tris pH 8.0, 100 mM NaCl, 0.0015% LMNG; single-particle, C1, 3.96 Å.
Test [3] concerns the target T1, C-terminal periplasmic domain of HasB, HasBCTD, residues 133-263 (Serratia marcescens, UniProt Q79AD1 133-263, 15N-labeled).
T1 construct: HasB, TonB paralog of Serratia marcescens, C-terminal periplasmic domain, residues 133-263; also called C-terminal globular domain of HasB
T1 sequence (looked up): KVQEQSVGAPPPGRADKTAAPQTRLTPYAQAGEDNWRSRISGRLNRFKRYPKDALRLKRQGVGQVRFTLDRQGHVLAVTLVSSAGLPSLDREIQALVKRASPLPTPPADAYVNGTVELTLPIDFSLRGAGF
Kind of test: NMR titration; 1H-15N HSQC of 0.15 mM 15N-labeled HasBCTD, 50 mM sodium phosphate pH 7, 50 mM NaCl, 293 K, 600 MHz; peptide added at 2:1 and 10:1 ratios; chemical shift perturbations. To be noted: both partners purified.

With “ExbBSm, C-terminally His6-tagged (from pBADExbBSmHis6), purified alone (natural protein)”, the stoichiometry N in test [1] worked out at 5. Consider “ExbBSm, untagged, co-expressed and co-purified with ExbDSm-His6 (from pBADExbBDSmHis6) (natural protein)”, for which the stoichiometry N in test [2] worked out at 5. On to “ExbDSm, C-terminally His6-tagged (from pBADExbBDSmHis6) (natural protein)”, for which, in test [2], the stoichiometry N (ExbD monomers per ExbB pentamer) came to 2.

B1: ExbBSm 1-44 synthetic peptide (periplasmic extension of ExbBSm) (peptide)
peptide: APAANPAVTESVAPTTAPAPAAAAPESITPVNPAPTIQPPETRG
notes: ExbB of Serratia marcescens Db11 (SMDB11_3480), periplasmic N-terminal extension, residues 1-44. numbers count on: the mature protein; also called periplasmic peptide of ExbBSm residues 1-44; periplasmic fragment of ExbBSm; source: synthetic peptide (Proteogenix)
On to B1, for which the binding result in test [3] is “binds”.
